B1: Catenin delta-1 (Mus musculus), P30999 (parent)
chain: MDDSEVESTASILASVKEQEAQFEKLTRALEEERRHVSAQLERVRVSPQDANSLMANGTLTRRHQNGRFVGDADLERQKFSDLKLNGPQDHNHLLYSTIPRMQEPGQIVETYTEEDPEGAMSVVSVETTDDGTTRRTETTVKKVVKTMTTRTVQPVPMGPDGLPVDASAVSNNYIQTLGRDFRKNGNGGPGPYVGQAGTATLPRNFHYPPDGYGRHYEDGYPGGSDNYGSLSRVTRIEERYRPSMEGYRAPSRQDVYGPQPQVRVGGSSVDLHRFHPEPYGLEDDQRSMGYDDLDYGMMSDYGTARRTGTPSDPRRRLRSYEDMIGEEVPPDQYYWAPLAQHERGSLASLDSLRKGMPPPSNWRQPELPEVIAMLGFRLDAVKSNAAAYLQHLCYRNDKVKTDVRKLKGIPILVGLLDHPKKEVHLGACGALKNISFGRDQDNKIAIKNCDGVPALVRLLRKARDMDLTEVITGTLWNLSSHDSIKMEIVDHALHALTDEVIIPHSGWEREPNEDCKPRHIEWESVLTNTAGCLRNVSSERSEARRKLRECDGLVDALIFIVQAEIGQKDSDSKLVENCVCLLRNLSYQVHREIPQAERYQEALPTVANSTGPHAASCFGAKKGKDEWFSRGKKPTEDPANDTVDFPKRTSPARGYELLFQPEVVRIYISLLKESKTPAILEASAGAIQNLCAGRWTYGRYIRSALRQEKALSAIAELLTSEHERVVKAASGALRNLAVDARNKELIGKHAIPNLVKNLPGGQQNSSWNFSEDTVVSILNTINEVIAENLEAAKKLRETQGIEKLVLINKSGNRSEKEVRAAALVLQTIWGYKELRKPLEKEGWKKSDFQVNLNNASRSQSSHSYDDSTLPLIDRNQKSDKKPDREEIPMSNMGSNTKSLDNNYSTLNERGDHNRTLDRSGDLGDMEPLKGAPLMQKI

Variants of: B1
Details: with cadh2_mouse Cdh2, P15116
Chain of cadh2_mouse Cdh2, P15116 (P15116 whole entry): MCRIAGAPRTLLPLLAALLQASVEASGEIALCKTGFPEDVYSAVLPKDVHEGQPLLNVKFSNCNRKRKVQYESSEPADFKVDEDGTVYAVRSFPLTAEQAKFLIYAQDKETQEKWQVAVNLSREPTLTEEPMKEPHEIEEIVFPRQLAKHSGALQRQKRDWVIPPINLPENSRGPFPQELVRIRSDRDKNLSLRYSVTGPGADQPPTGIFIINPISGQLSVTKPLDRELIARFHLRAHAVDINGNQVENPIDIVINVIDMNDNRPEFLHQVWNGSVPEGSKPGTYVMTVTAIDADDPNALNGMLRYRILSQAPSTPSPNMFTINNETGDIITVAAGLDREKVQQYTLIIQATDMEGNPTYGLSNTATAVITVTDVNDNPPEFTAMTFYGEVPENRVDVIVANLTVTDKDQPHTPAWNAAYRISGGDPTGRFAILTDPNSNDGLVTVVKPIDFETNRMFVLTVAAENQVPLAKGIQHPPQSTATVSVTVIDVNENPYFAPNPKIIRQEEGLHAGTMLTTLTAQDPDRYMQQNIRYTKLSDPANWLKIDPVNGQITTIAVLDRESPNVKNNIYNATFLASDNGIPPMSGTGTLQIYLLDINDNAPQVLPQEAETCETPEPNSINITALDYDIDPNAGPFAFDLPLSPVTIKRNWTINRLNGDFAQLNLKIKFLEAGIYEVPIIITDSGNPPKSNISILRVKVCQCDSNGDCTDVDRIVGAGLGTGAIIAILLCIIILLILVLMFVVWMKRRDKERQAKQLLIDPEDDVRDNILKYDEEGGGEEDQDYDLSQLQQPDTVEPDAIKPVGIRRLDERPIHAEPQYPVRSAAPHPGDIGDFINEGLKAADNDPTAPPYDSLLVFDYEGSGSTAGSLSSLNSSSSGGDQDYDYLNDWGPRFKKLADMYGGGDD

Row | effect of a mutation on the interaction | Variant
1 | increasing interaction strength | T310A
